Laboratory results reported in patent publication US20250206836A1.

Target: C1q human protein (human) (UniProt P02745)
Test: ELISA, plates coated with the antibody, C1q human protein titrated (the concentration axis is that of C1q), Mean Absorbance (OD Units)

C1q human protein (human), sequence (P02745 23-245 limits assumed, chain 1 of 3): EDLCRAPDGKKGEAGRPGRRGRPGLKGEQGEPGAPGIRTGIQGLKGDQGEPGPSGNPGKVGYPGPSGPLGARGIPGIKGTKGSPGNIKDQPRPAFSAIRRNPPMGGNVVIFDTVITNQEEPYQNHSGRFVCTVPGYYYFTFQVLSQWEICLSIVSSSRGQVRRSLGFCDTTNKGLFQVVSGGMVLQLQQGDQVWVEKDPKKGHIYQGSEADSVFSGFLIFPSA
C1q human protein (human), sequence (P02746 28-253 limits assumed, chain 2 of 3, further chain): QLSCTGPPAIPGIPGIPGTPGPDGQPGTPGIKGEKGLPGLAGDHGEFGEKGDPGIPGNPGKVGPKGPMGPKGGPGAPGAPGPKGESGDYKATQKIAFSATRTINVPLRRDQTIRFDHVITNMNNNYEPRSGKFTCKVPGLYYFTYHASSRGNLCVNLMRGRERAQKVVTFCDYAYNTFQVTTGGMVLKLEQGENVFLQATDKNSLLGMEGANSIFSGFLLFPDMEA
C1q human protein (human), sequence (P02747 29-245 limits assumed, chain 3 of 3, further chain): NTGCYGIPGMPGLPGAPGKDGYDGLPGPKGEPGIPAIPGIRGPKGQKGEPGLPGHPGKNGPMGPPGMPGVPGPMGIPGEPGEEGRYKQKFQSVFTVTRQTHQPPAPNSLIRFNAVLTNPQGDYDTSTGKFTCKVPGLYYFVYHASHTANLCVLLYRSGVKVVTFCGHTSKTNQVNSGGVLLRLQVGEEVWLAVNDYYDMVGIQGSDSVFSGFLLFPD

EC50 (read off the curve): 20 µg/mL
Substance: Remicade (pos. control) (antibody)
